Paper doi:10.1101/2024.01.17.576111

Target: PbrSYP71ΔTM-His (lacking TM domain of PbrSYP71) (Pyrus bretschneideri)
Test: MST

F-actin (Pre-formed Actin Filaments, rabbit skeletal muscle actin) (from UniProt P68135 1-377) (natural protein)
Kd: 185 nM
